In one assay the target is T1, FcRn (Homo sapiens, UniProt P55899).
T1 construct: purchased Roche 09430857001
Kind of assay: Relative FcRn binding by FcRn-HPLC. Particulars: FcRn affinity column; for Retention Time: pH gradient 5.5 to 8.8 over 90 minutes, main peak; for Peak Width: peak width at 50% peak height. As to the method: IgG binding to neonatal Fc receptor (FcRn) is a key mechanism for antibody recycling and a determinant of antibody pharmacokinetics (PK). […] Antibody-A is an IgG1 mAb with L234A, L235A, D265S mutations to reduce FcγR and Clq binding and M252Y, S254T, and T256E mutations to modulate the antibody's clearance profile. The impact of these combined mutation sets was assessed by FcRn-HPLC. Stock antibody solutions were diluted to 1 mg/mL into 20 mM MES, 140 mM NaCl, pH5.5. An Agilent 1290 HPLC equipped with an FcRn Affinity Column Gen2 (Roche, Cat #09430857001) was pre-equilibrated with 20 mM MES, 140 mM NaCl, pH5.5 with a flow rate of 0.2mL/min. 20 μμL antibody injections were made followed by 10 minute column wash with 20 mM MES, 140 mM NaCl, pH5.5. Antibodies were then eluted by pH gradient elution into 20 mM Tris, 140 mM NaCl, pH8.8 over 90 minutes. Chromatograms were blank-subtracted to remove baseline drift.

The target of the next assay is leptin-LEPR interaction (Homo sapiens, UniProt P48357). Kind of assay: ELISA based competition binding assay of antibodies and leptin protein to LEPR. (In general: ELISA stands for enzyme-linked immunosorbent assay.)

“And” between values parts separate entries of the source, which are not always exact repeats. Identical values can stand only once.

T1 sequence (P55899 24-297 limits assumed): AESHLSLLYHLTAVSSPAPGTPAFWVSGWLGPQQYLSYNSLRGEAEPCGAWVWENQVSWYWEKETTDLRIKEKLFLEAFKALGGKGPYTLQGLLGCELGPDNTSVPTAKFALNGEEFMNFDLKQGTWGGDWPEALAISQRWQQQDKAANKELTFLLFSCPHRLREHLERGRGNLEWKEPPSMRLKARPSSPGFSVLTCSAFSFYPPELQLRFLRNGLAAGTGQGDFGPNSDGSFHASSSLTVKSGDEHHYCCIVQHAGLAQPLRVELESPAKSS
T1 sequence (P61769 21-119 partner): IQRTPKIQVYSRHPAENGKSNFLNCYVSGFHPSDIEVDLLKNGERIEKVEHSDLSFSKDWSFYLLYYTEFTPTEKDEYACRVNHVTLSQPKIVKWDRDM
Chain of leptin-LEPR interaction (P48357 with tags, fused parts or gaps): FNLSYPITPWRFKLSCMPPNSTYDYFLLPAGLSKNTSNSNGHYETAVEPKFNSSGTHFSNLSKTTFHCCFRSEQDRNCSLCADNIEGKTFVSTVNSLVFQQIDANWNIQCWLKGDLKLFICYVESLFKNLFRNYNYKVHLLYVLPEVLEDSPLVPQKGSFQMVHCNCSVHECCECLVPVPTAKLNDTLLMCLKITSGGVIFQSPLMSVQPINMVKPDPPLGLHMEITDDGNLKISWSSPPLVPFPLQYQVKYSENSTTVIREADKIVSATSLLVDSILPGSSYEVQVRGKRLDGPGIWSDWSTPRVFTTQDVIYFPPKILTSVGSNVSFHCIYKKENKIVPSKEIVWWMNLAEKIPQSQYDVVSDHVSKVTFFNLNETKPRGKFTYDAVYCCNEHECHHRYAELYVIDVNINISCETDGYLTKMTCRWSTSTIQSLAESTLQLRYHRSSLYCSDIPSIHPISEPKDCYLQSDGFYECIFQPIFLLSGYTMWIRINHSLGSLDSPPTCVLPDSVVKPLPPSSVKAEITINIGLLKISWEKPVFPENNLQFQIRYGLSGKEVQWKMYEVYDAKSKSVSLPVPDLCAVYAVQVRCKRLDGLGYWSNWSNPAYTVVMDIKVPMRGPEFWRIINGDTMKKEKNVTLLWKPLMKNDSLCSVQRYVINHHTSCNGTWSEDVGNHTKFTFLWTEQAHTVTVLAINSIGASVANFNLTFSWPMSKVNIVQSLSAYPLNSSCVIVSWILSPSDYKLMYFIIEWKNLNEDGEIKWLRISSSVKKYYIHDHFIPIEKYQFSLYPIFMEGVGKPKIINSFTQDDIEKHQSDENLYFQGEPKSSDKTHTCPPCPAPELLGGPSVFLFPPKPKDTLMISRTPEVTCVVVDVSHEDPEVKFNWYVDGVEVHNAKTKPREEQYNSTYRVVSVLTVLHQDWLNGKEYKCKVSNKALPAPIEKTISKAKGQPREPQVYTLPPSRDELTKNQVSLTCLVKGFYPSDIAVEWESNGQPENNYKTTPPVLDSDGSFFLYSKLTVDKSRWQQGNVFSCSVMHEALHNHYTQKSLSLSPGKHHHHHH
Experimental for leptin-LEPR interaction: To test whether the binding of anti-LEPR antibodies to LEPR will compete with leptin-LEPR interaction, an ELISA based competition binding assay was conducted.
Recombinant LEPR extracellular domain fused to hlgG1-Fc (LEPR-Fc) (SEQ ID NO: 30) was diluted in Phosphate Buffered Solution (PBS, Gibco, #20012-027) and applied onto a 96-well Costar assay plate (Corning, #3690) at 5 μg/mL and 50 μL/well. The solution was incubated at 4° C. for 20 hours to allow sufficient protein coating. The plate was then rinsed 3 times with 160 μL/well of 1x wash buffer (R&D, #WA126, 25x), blocked for 1 hour at room temperature with Casein blocking solution (ThermoFisher, #37582), and rinsed by wash buffer 2 times. Serial concentrations of anti-LEPR antibodies (Antibodies A, B, and C) were then diluted in 60 μL of Casein blocking solution and added to each well. Serial concentrations of LEPR-Fc (SEQ ID NO:30) were used as positive control to compete with plate-bound receptor for leptin. Casein blocking solution was used as negative control. The plate was incubated with either anti-LEPR antibodies, positive or negative controls for 90 minutes at room temperature. Next, recombinant human leptin protein (R&D, #398-LP-05M) diluted in 20 μL Casein blocking buffer was added to each plate to a final concentration of 2 nM. The plate was then mixed for 30 seconds with gentle shaking followed by another 90 minutes of incubation at room temperature. The plate was rinsed 3 times with wash buffer. […] Data was obtained by a microplate reader with light absorbance set to 450 nm (OD450). Average OD450 readings in casein coated wells (without LEPR-Fc (SEQ ID NO: 30) coating) were subtracted from all raw OD450 readings to generate the normalized OD450 readings. The average normalized OD450 readings from negative controls (2 nM leptin incubated wells without any competing articles) was set as 100 percent (100%) binding. All normalized OD450 readings were compared to this OD450 reading and presented as percentages of binding. The top and bottom of dose response curve and IC50 was calculated using GraphPad Prism software.

Take Briakinumab: in the assay with FcRn, the “Retention Time” value was determined as 88.9 min; the “Peak Width” value was 10 min and 10.0 min.

As for “hLEPR-TEV-hIgG1Fc: recombinant LEPR extracellular domain fused to hIgG1-Fc (SEQ ID NO: 30), positive control competing for leptin”, in the assay with leptin-LEPR interaction (competition dose response curve), the “Hill Slope” value is given as −1.07. Further, the “Bottom (%)” value with leptin-LEPR interaction (percent leptin binding to plate-bound LEPR-Fc, 2 nM leptin, bottom of dose response curve) is recorded as 6.076%. Further, in the assay with leptin-LEPR interaction (percent leptin binding to plate-bound LEPR-Fc, 2 nM leptin, top of dose response curve), the “Top (%)” value is given as 92.03%.

In the case of Ustekinumab, in the assay with FcRn, the “Retention Time” value amounted to 69.4 min and the “Peak Width” value was 1.9 min.
